According to patent publication US20220249653A1:

Target: CD40L (human) (UniProt P29965)
Experiment: cell-based or functional assay

UniProt P29965, sequence (P29965 whole entry): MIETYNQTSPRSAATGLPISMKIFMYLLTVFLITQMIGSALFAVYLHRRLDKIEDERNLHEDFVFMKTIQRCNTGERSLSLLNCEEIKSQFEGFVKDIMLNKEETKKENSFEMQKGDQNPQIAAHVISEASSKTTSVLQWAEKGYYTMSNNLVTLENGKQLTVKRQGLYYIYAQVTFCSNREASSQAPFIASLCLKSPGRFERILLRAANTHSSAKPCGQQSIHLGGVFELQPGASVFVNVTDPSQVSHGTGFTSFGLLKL

CD40L blocking antibody (clone MK13A4; Enzo Life Sciences Cat #ALX-805-037-C100)
abrogation of intracellular p24 expression: 90.8% | inhibition of CD4 downregulation (flow cytometry of MDC1/SEB-activated CD4+ T cells): 87.7% | reduction in HIV-1 RNA content in the day 7 co-culture supernatants measured by qRT-PCR: 94.1%
